Test results taken from PMC9641244.

Experiments:
Dmc1 D311K = target: T1, Dmc1 D311K (Saccharomyces cerevisiae, UniProt P25453 1-334, D311K); experiment: EMSA
T1 sequence: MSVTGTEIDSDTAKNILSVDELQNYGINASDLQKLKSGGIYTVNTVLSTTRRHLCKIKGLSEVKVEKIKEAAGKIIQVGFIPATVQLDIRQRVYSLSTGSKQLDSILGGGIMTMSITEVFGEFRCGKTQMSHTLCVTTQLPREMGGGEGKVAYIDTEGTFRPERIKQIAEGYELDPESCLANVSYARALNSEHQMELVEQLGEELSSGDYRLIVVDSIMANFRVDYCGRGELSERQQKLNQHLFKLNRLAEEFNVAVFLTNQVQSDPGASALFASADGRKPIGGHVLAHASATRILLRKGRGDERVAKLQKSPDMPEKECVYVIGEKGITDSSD

DMC1 E162A = target: T2, DMC1 E162A (Homo sapiens, UniProt Q14565 1-340, E162A); experiment: EMSA
T2 sequence: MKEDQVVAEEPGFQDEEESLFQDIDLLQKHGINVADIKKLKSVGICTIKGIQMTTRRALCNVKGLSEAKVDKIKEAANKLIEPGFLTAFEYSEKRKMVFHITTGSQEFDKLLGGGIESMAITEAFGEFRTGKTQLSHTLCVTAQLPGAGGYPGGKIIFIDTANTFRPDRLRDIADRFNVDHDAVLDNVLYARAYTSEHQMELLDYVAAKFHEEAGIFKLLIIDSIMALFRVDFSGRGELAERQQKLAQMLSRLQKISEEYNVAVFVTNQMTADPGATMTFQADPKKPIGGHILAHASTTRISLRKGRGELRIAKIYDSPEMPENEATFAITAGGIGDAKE

Dmc1 E157K = target: T3, Dmc1 E157K (Saccharomyces cerevisiae, UniProt P25453 1-334, E157K); experiment: EMSA
T3 sequence: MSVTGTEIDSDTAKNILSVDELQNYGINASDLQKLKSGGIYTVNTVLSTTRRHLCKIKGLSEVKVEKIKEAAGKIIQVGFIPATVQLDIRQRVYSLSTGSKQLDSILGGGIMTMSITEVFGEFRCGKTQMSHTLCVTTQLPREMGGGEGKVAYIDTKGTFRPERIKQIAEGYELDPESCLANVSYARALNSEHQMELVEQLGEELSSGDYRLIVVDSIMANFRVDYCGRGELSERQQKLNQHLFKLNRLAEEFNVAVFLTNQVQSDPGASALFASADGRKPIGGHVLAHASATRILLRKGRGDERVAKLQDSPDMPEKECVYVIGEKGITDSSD

DMC1 D317A [1] = target: T4, DMC1 D317A (Homo sapiens, UniProt Q14565 1-340, D317A); experiment: EMSA
T4 sequence: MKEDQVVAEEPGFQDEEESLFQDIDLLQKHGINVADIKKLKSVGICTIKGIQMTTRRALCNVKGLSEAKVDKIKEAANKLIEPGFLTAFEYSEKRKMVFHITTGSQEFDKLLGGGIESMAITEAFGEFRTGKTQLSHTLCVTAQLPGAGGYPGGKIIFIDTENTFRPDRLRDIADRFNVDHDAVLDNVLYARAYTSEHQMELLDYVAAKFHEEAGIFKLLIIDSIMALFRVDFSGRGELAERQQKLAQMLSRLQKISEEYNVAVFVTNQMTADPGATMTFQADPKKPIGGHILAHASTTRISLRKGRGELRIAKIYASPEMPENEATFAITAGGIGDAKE

DMC1 D317K [2] = target: T5, DMC1 D317K (Homo sapiens, UniProt Q14565 1-340, D317K); experiment: EMSA
T5 sequence: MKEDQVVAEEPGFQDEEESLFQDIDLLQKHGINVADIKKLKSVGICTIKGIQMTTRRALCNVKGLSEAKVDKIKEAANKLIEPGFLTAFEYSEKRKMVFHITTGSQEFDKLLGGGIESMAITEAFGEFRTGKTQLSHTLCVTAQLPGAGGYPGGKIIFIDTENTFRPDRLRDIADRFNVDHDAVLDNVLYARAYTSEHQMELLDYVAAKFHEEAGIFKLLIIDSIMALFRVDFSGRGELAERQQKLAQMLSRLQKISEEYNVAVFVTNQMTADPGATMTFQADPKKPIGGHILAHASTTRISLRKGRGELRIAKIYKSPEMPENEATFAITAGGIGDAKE

DMC1 E162K = target: T6, DMC1 E162K (Homo sapiens, UniProt Q14565 1-340, E162K); experiment: BLI
T6 sequence: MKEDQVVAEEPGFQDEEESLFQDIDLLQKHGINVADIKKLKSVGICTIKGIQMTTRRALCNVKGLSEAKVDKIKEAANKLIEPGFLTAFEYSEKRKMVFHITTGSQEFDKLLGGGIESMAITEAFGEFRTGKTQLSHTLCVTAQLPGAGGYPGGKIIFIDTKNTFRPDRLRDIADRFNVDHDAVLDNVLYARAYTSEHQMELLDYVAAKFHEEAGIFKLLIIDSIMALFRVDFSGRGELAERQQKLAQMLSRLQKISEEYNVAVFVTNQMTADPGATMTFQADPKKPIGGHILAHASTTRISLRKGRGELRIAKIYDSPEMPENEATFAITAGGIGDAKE

DMC1 D317A [3] = target: T4, DMC1 D317A; experiment: BLI
DMC1 WT = target: T7, DMC1 WT (Homo sapiens, UniProt Q14565 1-340); experiment: BLI
T7 sequence: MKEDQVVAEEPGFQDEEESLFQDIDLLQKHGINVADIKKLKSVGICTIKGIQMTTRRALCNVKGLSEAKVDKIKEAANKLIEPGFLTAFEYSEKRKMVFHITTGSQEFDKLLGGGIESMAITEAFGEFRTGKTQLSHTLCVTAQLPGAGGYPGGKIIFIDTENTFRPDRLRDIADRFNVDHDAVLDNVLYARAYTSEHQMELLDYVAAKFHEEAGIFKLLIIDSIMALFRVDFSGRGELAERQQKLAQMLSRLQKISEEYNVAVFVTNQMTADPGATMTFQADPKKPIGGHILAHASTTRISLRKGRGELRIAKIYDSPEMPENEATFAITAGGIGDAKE

DMC1 D317K [4] = target: T5, DMC1 D317K; experiment: BLI

Measured: binding result

B1: pR231 90-mer (ssDNA)
DNA: AAATCAATCTAAAGTATATATGAGTAAACTTGGTCTGACAGTTACCAATGCTTAATCAGTGAGGCACCTATCTCAGCGATCTGTCTATTT
binds: Dmc1 D311K | DMC1 E162A | Dmc1 E157K | DMC1 D317A [1] | DMC1 D317K [2]

B2: pR231 90-mer biotinylated (ssDNA)
DNA: AAATCAATCTAAAGTATATATGAGTAAACTTGGTCTGACAGTTACCAATGCTTAATCAGTGAGGCACCTATCTCAGCGATCTGTCTATTT
binds: DMC1 E162K | DMC1 D317A [3] | DMC1 WT | DMC1 D317K [4]
